Values of other authors, collected in patent US8021659B2, “Coenzyme Q10, lactoferrin and angiogenin compositions and uses thereof” (Naidu LP, priority 2006, dated 2011).

Assays:
[1] = test system: osteoblasts; settings: up to

B1: LF: 79-kDa glycoprotein present in every mucosal secretion of the human body; metal-transport protein (protein, UniProt P02788 20-710, looked up)
Lactotransferrin: GRRRSVQWCAVSQPEATKCFQWQRNMRKVRGPPVSCIKRDSPIQCIQAIAENRADAVTLDGGFIYEAGLAPYKLRPVAAEVYGTERQPRTHYYAVAVVKKGGSFQLNELQGLKSCHTGLRRTAGWNVPIGTLRPFLNWTGPPEPIEAAVARFFSASCVPGADKGQFPNLCRLCAGTGENKCAFSSQEPYFSYSGAFKCLRDGAGDVAFIRESTVFEDLSDEAERDEYELLCPDNTRKPVDKFKDCHLARVPSHAVVARSVNGKEDAIWNLLRQAQEKFGKDKSPKFQLFGSPSGQKDLLFKDSAIGFSRVPPRIDSGLYLGSGYFTAIQNLRKSEEEVAARRARVVWCAVGEQELRKCNQWSGLSEGSVTCSSASTTEDCIALVLKGEADAMSLDGGYVYTAGKCGLVPVLAENYKSQQSSDPDPNCVDRPVEGYLAVAVVRRSDTSLTWNSVKGKKSCHTAVDRTAGWNIPMGLLFNQTGSCKFDEYFSQSCAPGSDPRSNLCALCIGDEQGENKCVPNSNERYYGYTGAFRCLAENAGDVAFVKDVTVLQNTDGNNNEAWAKDLKLADFALLCLDGKRKPVTEARSCHLAMAPNHAVVSRMDKVERLKQVLLHQQAKFGRNGSDCPDKFCLFQSETKNLLFNDNTECLARLHGKTTYEKYLGPQYVAGITNLKKCSTSPLLEACEFLRK
Absorption in the intestinal tract
  time to peak level in plasma: ≤ 2 h
Elimination from the plasma by liver and spleen
  mean fractional catabolic rate: 5.7 day⁻¹
[1]
  reduction of the rate at which osteoblasts die: 50-70%
